Assay results reported in patent EP4772193A1 (Teijin Pharma Limited, dated 2026).
Read-outs that look alike come from different tables or passages of the source.

T1: recombinant human soluble gpNMB (recombinant human gpNMB-FLAG-His) (human, UniProt Q14956 23-498)
T1 sequence: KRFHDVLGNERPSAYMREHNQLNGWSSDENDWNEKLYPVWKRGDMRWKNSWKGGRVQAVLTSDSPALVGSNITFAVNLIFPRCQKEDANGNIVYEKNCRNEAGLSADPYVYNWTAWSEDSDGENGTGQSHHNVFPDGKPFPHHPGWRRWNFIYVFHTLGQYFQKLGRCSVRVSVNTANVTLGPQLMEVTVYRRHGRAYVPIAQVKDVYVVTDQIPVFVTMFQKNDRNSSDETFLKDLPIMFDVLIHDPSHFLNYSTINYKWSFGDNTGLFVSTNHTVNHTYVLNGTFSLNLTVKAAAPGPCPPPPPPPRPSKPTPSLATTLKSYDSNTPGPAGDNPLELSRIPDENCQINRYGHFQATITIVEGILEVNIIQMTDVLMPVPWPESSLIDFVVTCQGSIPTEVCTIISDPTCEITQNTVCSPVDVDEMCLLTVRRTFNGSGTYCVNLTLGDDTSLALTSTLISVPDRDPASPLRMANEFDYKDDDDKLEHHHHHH


Assays:
[1] = molecular target: T1, recombinant human soluble gpNMB …; assay: antigen ELISA
[2] = molecular target: T1, recombinant human soluble gpNMB …; assay: antigen ELISA, vs hGPN18-2_H2L3
[3] = molecular target: T1, recombinant human soluble gpNMB …; assay: antigen ELISA; remark: listed apart in the source
[4] = molecular target: T1, recombinant human soluble gpNMB …; assay: antigen ELISA, vs hGPN06-1_H1L1

Binder | EC50 [1] [nM] | Relative binding activity [2] | EC50 [3] [nM] | Relative binding activity [4]
hGPN18-2_H2L3 VH D52A (antibody, V domains shown) VH: QVQLVQSGPGLVQPTQTLTLTCSFSGFSLSTSVMGVGWIRQPSGKGLEWLAAIWWDDDKDYNPSLKSRLTISKDTSKNQVVLTMTNMDTVDTATYYCARTYYSNYEYYGMDYWGQGTLVTVSS VL: DIVMTQSPDSLAVSLGERATINCRSSQTIILSNGNTYLEWYQQKPGQPPKLLIYKVSNRFSGVPDRFSGSGSGTDFTLTISSLQAEDVAVYYCFQGSHVPFTFGSGTKLEIKR | 100 | 0.05 | – | –
hGPN18-2_H2L3 VH I53A (antibody, V domains shown) VH: QVQLVQSGPGLVQPTQTLTLTCSFSGFSLSTSVMGVGWIRQPSGKGLEWLADAWWDDDKDYNPSLKSRLTISKDTSKNQVVLTMTNMDTVDTATYYCARTYYSNYEYYGMDYWGQGTLVTVSS VL: DIVMTQSPDSLAVSLGERATINCRSSQTIILSNGNTYLEWYQQKPGQPPKLLIYKVSNRFSGVPDRFSGSGSGTDFTLTISSLQAEDVAVYYCFQGSHVPFTFGSGTKLEIKR | 6.94 | 0.6 | – | –
hGPN18-2_H2L3 VH G37A (antibody, V domains shown) VH: QVQLVQSGPGLVQPTQTLTLTCSFSGFSLSTSVMGVAWIRQPSGKGLEWLADIWWDDDKDYNPSLKSRLTISKDTSKNQVVLTMTNMDTVDTATYYCARTYYSNYEYYGMDYWGQGTLVTVSS VL: DIVMTQSPDSLAVSLGERATINCRSSQTIILSNGNTYLEWYQQKPGQPPKLLIYKVSNRFSGVPDRFSGSGSGTDFTLTISSLQAEDVAVYYCFQGSHVPFTFGSGTKLEIKR | 3.32 | 0.87 | – | –
hGPN18-2_H2L3 VH K59A (antibody, V domains shown) VH: QVQLVQSGPGLVQPTQTLTLTCSFSGFSLSTSVMGVGWIRQPSGKGLEWLADIWWDDDADYNPSLKSRLTISKDTSKNQVVLTMTNMDTVDTATYYCARTYYSNYEYYGMDYWGQGTLVTVSS VL: DIVMTQSPDSLAVSLGERATINCRSSQTIILSNGNTYLEWYQQKPGQPPKLLIYKVSNRFSGVPDRFSGSGSGTDFTLTISSLQAEDVAVYYCFQGSHVPFTFGSGTKLEIKR | 4.42 | 0.78 | – | –
hGPN18-2_H2L3 VH M34A (antibody, V domains shown) VH: QVQLVQSGPGLVQPTQTLTLTCSFSGFSLSTSVAGVGWIRQPSGKGLEWLADIWWDDDKDYNPSLKSRLTISKDTSKNQVVLTMTNMDTVDTATYYCARTYYSNYEYYGMDYWGQGTLVTVSS VL: DIVMTQSPDSLAVSLGERATINCRSSQTIILSNGNTYLEWYQQKPGQPPKLLIYKVSNRFSGVPDRFSGSGSGTDFTLTISSLQAEDVAVYYCFQGSHVPFTFGSGTKLEIKR | 3.58 | 0.91 | – | –
hGPN18-2_H2L3 VH F27A (antibody, V domains shown) VH: QVQLVQSGPGLVQPTQTLTLTCSFSGASLSTSVMGVGWIRQPSGKGLEWLADIWWDDDKDYNPSLKSRLTISKDTSKNQVVLTMTNMDTVDTATYYCARTYYSNYEYYGMDYWGQGTLVTVSS VL: DIVMTQSPDSLAVSLGERATINCRSSQTIILSNGNTYLEWYQQKPGQPPKLLIYKVSNRFSGVPDRFSGSGSGTDFTLTISSLQAEDVAVYYCFQGSHVPFTFGSGTKLEIKR | 5.47 | 0.69 | – | –
hGPN18-2_H2L3 VH D58A (antibody, V domains shown) VH: QVQLVQSGPGLVQPTQTLTLTCSFSGFSLSTSVMGVGWIRQPSGKGLEWLADIWWDDAKDYNPSLKSRLTISKDTSKNQVVLTMTNMDTVDTATYYCARTYYSNYEYYGMDYWGQGTLVTVSS VL: DIVMTQSPDSLAVSLGERATINCRSSQTIILSNGNTYLEWYQQKPGQPPKLLIYKVSNRFSGVPDRFSGSGSGTDFTLTISSLQAEDVAVYYCFQGSHVPFTFGSGTKLEIKR | 10.2 | 0.5 | – | –
hGPN18-2_H2L3 VH L29A (antibody, V domains shown) VH: QVQLVQSGPGLVQPTQTLTLTCSFSGFSASTSVMGVGWIRQPSGKGLEWLADIWWDDDKDYNPSLKSRLTISKDTSKNQVVLTMTNMDTVDTATYYCARTYYSNYEYYGMDYWGQGTLVTVSS VL: DIVMTQSPDSLAVSLGERATINCRSSQTIILSNGNTYLEWYQQKPGQPPKLLIYKVSNRFSGVPDRFSGSGSGTDFTLTISSLQAEDVAVYYCFQGSHVPFTFGSGTKLEIKR | 4.41 | 0.82 | – | –
hGPN18-2_H2L3 VH S32A (antibody, V domains shown) VH: QVQLVQSGPGLVQPTQTLTLTCSFSGFSLSTAVMGVGWIRQPSGKGLEWLADIWWDDDKDYNPSLKSRLTISKDTSKNQVVLTMTNMDTVDTATYYCARTYYSNYEYYGMDYWGQGTLVTVSS VL: DIVMTQSPDSLAVSLGERATINCRSSQTIILSNGNTYLEWYQQKPGQPPKLLIYKVSNRFSGVPDRFSGSGSGTDFTLTISSLQAEDVAVYYCFQGSHVPFTFGSGTKLEIKR | 4.31 | 0.78 | – | –
hGPN18-2_H2L3 VH G35A (antibody, V domains shown) VH: QVQLVQSGPGLVQPTQTLTLTCSFSGFSLSTSVMAVGWIRQPSGKGLEWLADIWWDDDKDYNPSLKSRLTISKDTSKNQVVLTMTNMDTVDTATYYCARTYYSNYEYYGMDYWGQGTLVTVSS VL: DIVMTQSPDSLAVSLGERATINCRSSQTIILSNGNTYLEWYQQKPGQPPKLLIYKVSNRFSGVPDRFSGSGSGTDFTLTISSLQAEDVAVYYCFQGSHVPFTFGSGTKLEIKR | 5.16 | 0.68 | – | –
hGPN06-1_H1L1 VL W90A (antibody, V domains shown) VH: QVQLVQSGAEVKKPGASVKVSCKASGYTFTDNWMGWVKQRPGQGLEWIGAIDPSDSFTNYNQNFKGRVTMTVDTSISTAYMELSRLRSDDSAVYFCTRSGYYGSPKLGGDYWGQGTLVTVSS VL: EIVLTQSPSSLSASVGDRVTITCSASSSISYMHWYQQKSGTAPKLLIYSTSNLASGVPSRFSGSGSGTDFTFTISSLQPEDAATYYCHQANSYPCTFGGGTKLEIK | – | – | 122 | 0.13

Continued by falling EC50 [1], values first:

EC50 [1] [nM] | Relative binding activity [2] | EC50 [3] [nM] | Relative binding activity [4] | Binder
8.98 | 0.63 | – | – | hGPN18-2_H2L3 VH D56A (antibody, V domains shown) VH: QVQLVQSGPGLVQPTQTLTLTCSFSGFSLSTSVMGVGWIRQPSGKGLEWLADIWWADDKDYNPSLKSRLTISKDTSKNQVVLTMTNMDTVDTATYYCARTYYSNYEYYGMDYWGQGTLVTVSS VL: DIVMTQSPDSLAVSLGERATINCRSSQTIILSNGNTYLEWYQQKPGQPPKLLIYKVSNRFSGVPDRFSGSGSGTDFTLTISSLQAEDVAVYYCFQGSHVPFTFGSGTKLEIKR
6.6 | 0.97 | – | – | hGPN18-2_H2L3 VH S30A (antibody, V domains shown) VH: QVQLVQSGPGLVQPTQTLTLTCSFSGFSLATSVMGVGWIRQPSGKGLEWLADIWWDDDKDYNPSLKSRLTISKDTSKNQVVLTMTNMDTVDTATYYCARTYYSNYEYYGMDYWGQGTLVTVSS VL: DIVMTQSPDSLAVSLGERATINCRSSQTIILSNGNTYLEWYQQKPGQPPKLLIYKVSNRFSGVPDRFSGSGSGTDFTLTISSLQAEDVAVYYCFQGSHVPFTFGSGTKLEIKR
5.61 | 0.86 | – | – | hGPN18-2_H2L3 VH D57A (antibody, V domains shown) VH: QVQLVQSGPGLVQPTQTLTLTCSFSGFSLSTSVMGVGWIRQPSGKGLEWLADIWWDADKDYNPSLKSRLTISKDTSKNQVVLTMTNMDTVDTATYYCARTYYSNYEYYGMDYWGQGTLVTVSS VL: DIVMTQSPDSLAVSLGERATINCRSSQTIILSNGNTYLEWYQQKPGQPPKLLIYKVSNRFSGVPDRFSGSGSGTDFTLTISSLQAEDVAVYYCFQGSHVPFTFGSGTKLEIKR
3.92 | 0.84 | – | – | hGPN18-2_H2L3 VH G26A (antibody, V domains shown) VH: QVQLVQSGPGLVQPTQTLTLTCSFSAFSLSTSVMGVGWIRQPSGKGLEWLADIWWDDDKDYNPSLKSRLTISKDTSKNQVVLTMTNMDTVDTATYYCARTYYSNYEYYGMDYWGQGTLVTVSS VL: DIVMTQSPDSLAVSLGERATINCRSSQTIILSNGNTYLEWYQQKPGQPPKLLIYKVSNRFSGVPDRFSGSGSGTDFTLTISSLQAEDVAVYYCFQGSHVPFTFGSGTKLEIKR
3.22 | 0.88 | – | – | hGPN18-2_H2L3 VH S28A (antibody, V domains shown) VH: QVQLVQSGPGLVQPTQTLTLTCSFSGFALSTSVMGVGWIRQPSGKGLEWLADIWWDDDKDYNPSLKSRLTISKDTSKNQVVLTMTNMDTVDTATYYCARTYYSNYEYYGMDYWGQGTLVTVSS VL: DIVMTQSPDSLAVSLGERATINCRSSQTIILSNGNTYLEWYQQKPGQPPKLLIYKVSNRFSGVPDRFSGSGSGTDFTLTISSLQAEDVAVYYCFQGSHVPFTFGSGTKLEIKR
3.13 | 0.98 | – | – | hGPN18-2_H2L3 VH D60A (antibody, V domains shown) VH: QVQLVQSGPGLVQPTQTLTLTCSFSGFSLSTSVMGVGWIRQPSGKGLEWLADIWWDDDKAYNPSLKSRLTISKDTSKNQVVLTMTNMDTVDTATYYCARTYYSNYEYYGMDYWGQGTLVTVSS VL: DIVMTQSPDSLAVSLGERATINCRSSQTIILSNGNTYLEWYQQKPGQPPKLLIYKVSNRFSGVPDRFSGSGSGTDFTLTISSLQAEDVAVYYCFQGSHVPFTFGSGTKLEIKR
3.12 | 0.97 | – | – | hGPN18-2_H2L3 VH T31A (antibody, V domains shown) VH: QVQLVQSGPGLVQPTQTLTLTCSFSGFSLSASVMGVGWIRQPSGKGLEWLADIWWDDDKDYNPSLKSRLTISKDTSKNQVVLTMTNMDTVDTATYYCARTYYSNYEYYGMDYWGQGTLVTVSS VL: DIVMTQSPDSLAVSLGERATINCRSSQTIILSNGNTYLEWYQQKPGQPPKLLIYKVSNRFSGVPDRFSGSGSGTDFTLTISSLQAEDVAVYYCFQGSHVPFTFGSGTKLEIKR
